Assays:
[1] = molecular target: T1, human MIF (macrophage migration inhibitory factor), recombinant (human, UniProt P14174 2-115); assay: SPR, Biacore 3000, RAM9 amine-coupled to CM5 chip, MIF injected at 40-480 nM, 1:1 Langmuir fit with mass transfer
T1 construct: The background says that MIF crystallises as a trimer; In the potency rows the target is the endogenous MIF of human U937 cells; also called GIF

[2] = molecular target: T1, human MIF (macrophage migration …); assay: cell-based or functional assay

T1 sequence (P14174 2-115 limits assumed): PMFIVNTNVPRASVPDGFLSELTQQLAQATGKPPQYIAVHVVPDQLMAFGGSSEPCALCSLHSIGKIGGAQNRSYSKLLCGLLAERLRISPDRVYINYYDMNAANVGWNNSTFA

B1: RAM9 (antibody, human IgG1, kappa, V domains shown)
VH: EVQLLESGGGLVQPGGSLRLSCAASGFTFSIYSMNWVRQAPGKGLEWVSSIGSSGGTTYYADSVKGRFTISRDNSKNTLYLQMNSLRAEDTAVYYCAGSQWLYGMDVWGQGTTVTVSS
VL: DIQMTQSPSSLSASVGDRVTITCRSSQRIMTYLNWYQQKPGKAPKLLIFVASHSQSGVPSRFRGSGSETDFTLTISGLQPEDSATYYCQQSFWTPLTFGGGTKVEIKR
notes: also deposited as plasmids DSM 25860 (hc) and DSM 25859 (lc); also called anti-MIF antibody RAM9; anti-oxMIF antibody
Q: What does the source list for B1?
A: Kd [1]: 1.7 nM; Potency (IC 50); inhibition of random migration of human U937 cells, Transwell chemokinesis assay [2]: 1 nM

Reference: patent EP3277718B1 (Baxalta GmbH, dated 2021)
